Experimental findings from the DeepSol protein solubility set are described below.

The data set is described as follows: soluble on expression in E. coli; label from the status in PepcDB or PDB records.
Consider “DPVSDITDLNYWKTPEQFDSFVFGLHSRFRSHSWNMFLLGEARSDVFGGIPFGGEATQGMERFPYNTLNAENPGISGFGDLYQNINQMNLFISRTLHTDVLTESARNYYLGQVYGLRAYYMYQLYRSWGDVVFTEEPSLGFEVGKLAKAATPAAEIFEQVKKDIESSLSYFGSDYTIKEKKSLWSKAATLMLKADVYLWSAHRDGGEGDARTAKNALVDIQNNISRSNLDLMDTYQGVFAYDNKGNKEIIFTIHNELFEYNLWNGNNDLFPQADYLGKFYNADGTLINTSVENNFGIMRLMVKLENFKKFLPGDTRRDVTLKDVYNKVENGKLELVGVYPHKYWGVMNGSTRVRCDDYPIYRYSDLLLMLAEAKVLLGEDPATEINRVRRRAFGDAYDASTVGFPNQEVDKRPADAVLQERLFEFMLEGKRWYDLRRFGDSYVLDYTPAEPARLLWPINQGALTNNPLLKQTVGY”, for which the “soluble on expression in E. coli” value is listed as “soluble”.

Take “DQRRRFIEAVLSGVTAAVIGVGRDRRITIFNPSSEGMLKKAAPELIGANLSDVAPEIEAVLVEAESRYRNDYRKQINIMRGGTERTMNVQVTREEGDESHGSYVITVDDIT”: the “soluble on expression in E. coli” value is listed as “not soluble”.

Take “DRQREAAQPAASQSASAMEANPTPAPDRSTSTSLFGDSDSAPRHRLNEEPAARRTSHDSEGMYTRRSVPRESYRDQRSDDFDDDLDIPDFLR”: the “soluble on expression in E. coli” value is on record as “not soluble”.

“DSYPDSQIEIRTLVGPYENTLVFRDTGPGIDDSILHKIFDDFFSFQKSGGSGLGLGYCQRVMRSFGGRIECKSVTNEFTEFYLHFPVVPNAPKVETLRTPNFYNWNQKVKTK”: the “soluble on expression in E. coli” value is “not soluble”.

Regarding “DTGTISTEEFYNFDNWKGFGYELFEDWSRWVYDWLPDGWNLWKELDRNRSGQYHIYDPLALDLDGDGIETVAAKGFSGSLFDHNGNGIRTATGWVSADDGLLVRDLNGNGIIDNGAELFGDNTKLADGSFAKHGYAALAELDSNGDNIINAADAAFQSLRVWQDLNQDGISQANELRTLEELGIQSLDLAYKDVNKNLGNGNTLAQQGSYTKTDGTTAKMGDLLLAADNLHSRFTNKMLSISHVRENTISPFVLGCLNK”, the “soluble on expression in E. coli” value is on record as “not soluble”.

In the case of “DVTPRRDAEYPPPEFLEAMKPLREICIKKTGVTEEAIIEFSDGKVHEDENLKCYMNCLFHEAKVVDDTGHVHLEKLHDALPDSMHDIALHMGKRCLYPEGENLCEKAFWLHKCWKESDPKHYFLI”, the “soluble on expression in E. coli” value is recorded as “soluble”.

For “EDPFQPEIKVRCVCGNSLETDSMIQVIWDELTAFIPCEDPRCHVWQHVGCVILPDKPMDGNPPLPESFYCEICRLT”, the “soluble on expression in E. coli” value is “soluble”.

With “EEILGSLFLKKKKKKKKKKSRNHRYFALLLPIRKMKKFFDSRREQGGSGLGSGSSGGGGSTSGLGSGYIGRVFGIGRQQVTVDEVLAEGGFAIVFLVRTSNGMKCALKRMFVNNEHDLQVCKREIQIMRDLSGHKNIVGYIDSSINNVSSGDVWEVLILMDFCRGGQVVNLMNQRLQTGFTENEVLQIFCDTCEAVARLHQCKTPIIHRDLKVENILLHDRGHYVLCDFGSATNKFQNPQTEGVNAVEDEIKKYTTLSYRAPEMVNLYSGKIITTKADIWALGCLLYKLCYFTLPFGESQVAICDGNFTIPDNSRYSQDMHCLIRYMLEPDPDKRPDIYQVSYFSFKLLKKECPIPNVQNSPIPAKLPEPVKASEAAAKKTQPKARLTDPIPTTETSIAPRQRPKAGQTQPNPGILPIQPALTPRKRATVQPPPQAAGSSNQPGLLASVPQPKPQAPPSQPLPQTQAKQPQAPPTPQQTPSTQAQGLPAQAQATPQHQQQLFLKQQQQQQQPPPAQQQPAGTFYQQQQAQTQQFQAVHPATQQPAIAQFPVVSQGGSQQQLMQNFYQQQQQQQQQQQQQQLATALHQQQLMTQQAALQQKPTMAAGQQPQPQPAAAPQPAPAQEPAIQAPVRQQPKVQTTPPPAVQGQKVGSLTPPSSPKTQRAGHRRILSDVTHSAVFGVPASKSTQLLQAAAAEASLNKSKSATTTPSGSPRTSQQNVYNPSEGSTWNPFDDDNFSKLTAEELLNKDFAKLGEGKHPEKLGGSAESLIPGFQSTQGDAFATTSFSAGTAEKRKGGQTVDSGLPLLSVSDPFIPLQVPDAPEKLIEGLKSPDTSLLLPDLLPMTDPFGSTSDAVIGKVIISVSSVMHDMCACFKNDKYLVNQSLGNSPATPEAKAI”, the “soluble on expression in E. coli” value was “soluble”.

On to “EERFGHLLHKVEWVSLGGGIHFTGEDYAVDAFCARLKAFSEKYGVQVYLEPGEAAITNSASLEVTVLDTLYNGKHLAVVDSSIEAHLLDLLIYRLNAKMAPNDGEHTYMVCGKSCLAGDIFGEYQFDRPLAIGDRLSFIDTAGYTMVKKNWFNGLKMPSIVVKQLDGSVEVVREFGFEDYVSSLS”, for which the “soluble on expression in E. coli” value was “not soluble”.

For “EEYPDGFAPMKPDQAEEAVLAGIALSACLIETNRRERFADRLRAAAGALREDWVVKIGDNHVAARLLDGLVTIPFDMDIAIEGAIEGESKSVVTDWR”, the “soluble on expression in E. coli” value is “not soluble”.

For the sequence “EHAKQASSYIPLDRLSISYCRSSGPGGQNVNKVNSKAEVRFHLASADWIEEPVRQKIALTHKNKINKAGELVLTSESSRYQFRNLAECLQKIRDMIAEA”, the “soluble on expression in E. coli” value was “soluble”.

In the case of “EHMQHLAMKGARFDIVLLPSSPTAHGLEQVQFQVAANKGNPPRPLNKVASGGELARISLALQVVASQYTQVPTLIFDEVDTGIGGGVAEMVGKALRALGRKHQVLAVTHLPQVASCGENHWRVRKHSEGEQTVSEISILDEIQRIEEVARMLGGEVITDTTRQHAAELLQLASKNSLF”, the “soluble on expression in E. coli” value is recorded as “not soluble”.

“EIDGTTYVDGGLFKDLPASVIREDCRYLIGVHLNPKEPSDYKKSLFGIAERCFGYIFRANSLPDRKLCDLLIESREIIKFKPFHVEPAEEIAAFGYKMAKQVLKTTSITRNP”: the “soluble on expression in E. coli” value is on record as “not soluble”.

Consider “EIRLSNTQQTYAFLKKRLRDYKNETFAALFLDNQHRIIAYEELFSGTINTATVYPRPIVERVLQLNAAALILAHNHPSGLSDASQQDLAITERIRDALDLVDARLLDHIVIGDNEVYSIFAENKWVCN”, for which the “soluble on expression in E. coli” value is on record as “not soluble”.

Regarding “EKALSKQYLQTAKDKITSLKNLKVIAITGSFGKTSTKNFLLQILQTTFNAHASPKSVNTLLGLANDINQNLDDRSEIYIAEAGARNKGDIKEITCLIEPHLVVVAEVGEQHLEYFKTLENICETKAELLDSKRLEKAFCYSVEKIKPYAPKDSPLIDYSSLVKNIQSTLKGTSFEMLIGSVWERFETKVLGEFSAYNIASAILIAKHLGLETERIKRLVLELNPIAHRLQLLEVNQKIIIDDSFNGNLKGMLEGIRLASLHKGRKVIVTPGLVESNTESNEALAQKIDGVFDVAIITGELNSKTIASQLKTPQKILLKDKAQLENILQATTIQGDLILFANDAPNYI”, the “soluble on expression in E. coli” value is given as “not soluble”.

Turning to “EKKRIESLINNMYDPVIGLDENLKILFVNEQAIKIIGISQEELIGHYTQELAIKNDLVRTLVQDLMVAENTPSNKAIPIKIYSNNKEGYFEKEILHISVTPTGEQVKQLIGHVIILRNIT”, the “soluble on expression in E. coli” value was “not soluble”.

For “ELGIKRESKLEFKLWYDDEKTPEALVFVVQGMGDDISSIQYVGDYMVRQFNTAVVGVNYHCIGNRPQTGSSFFMDDIDKLILKASCEAADIKLPYDVDKIQDYKAMSEIFHFVNNQIVEGKQKGNFTPNYFLNLHVSLQPTKNEYQNFGIMQAQDLLNVALYLKKHAPFDTMGGGIPIIMIGGSHGGYLAHLAAKIAPWLVDGVLDNSAYAKFLWRVVGFGKEIDFMQYSEFATFDFFHHIKTHCSTKTFWTSNSSSPRFFSPARRKIRNLLEEDHLLKQSKCLKTCFISYHSLYDEYVSLKEKTMFYEELEKLGFDVTLHSIT”, the “soluble on expression in E. coli” value is listed as “not soluble”.

On to “ENPRNVGSLDKTSKNVGTGLVGAPACGDVMKLQIQVDEKGKIVDARFKTFGCGSAIASSSLATEWVKGKTVEEALTIKNTDIAKELCLPPVKLHCSMLAEDAIKAALADYKLKQESK”, for which the “soluble on expression in E. coli” value is recorded as “soluble”.

Consider “EPEQVIRKYTEELKVAPEEDCIICMEKLAVASGYSDMTDSKALGPMVVGRLTKCSHAFHLLCLLAMYCNGNKDGSLQCPSCKTIYGEKTGTQPWGKMEVFR”, for which the “soluble on expression in E. coli” value is “soluble”.

As to “EPPDGKAISDGFNLLQELSAVNRENQLTPLGRQLARLPVDPRMGRMLLEAAKQGSLQEVLIVASAMSVQDVRERPPERQQAADQAHAQWKDAD”, the “soluble on expression in E. coli” value is reported as “not soluble”.

As to “EPVVVSAADGEIRTGNDHLCDLLDSDPSDVFGSQIGTFFPGLDDVDLRAHCSQSPGTPLTSSCSAGGTERWVEIAFEPQQWDG”, the “soluble on expression in E. coli” value is “not soluble”.

Regarding “EQEVSLDLILVEEYDSLIEKMSNWNFPIFELVEKMGEKSGRILSQVMYTLFQDTGLLEIFKIPTQQFMNYFRALENGYRDIPYHNRIHATDVLHAVWYLTTRPVPGLQQIHNGCGTGNETDSDGRINHGRIAYISSKSCSNPDESYGCLSSNIPALELMALYVAAAMHDYDHPGRTNAFLVATNAPQAVLYNDRSVLENHHAASAWNLYLSRPEYNFLLHLDHVEFKRFRFLVIEAILATDLKKHFDFLAEFNAKANDVNSNGIEWSNENDRLLVCQVCIKLADINGPAKVRDLHLKWTEGIVNEFYEQGDEEANLGLPISPFMDRSSPQLAKLQESFITHIVGPLCNSYDAAGLLPGQWLEAEEDNDTESGDDEDGEELDTEDEEMENNLNPKPPRRKSRRRIFCQLMHHLTENHKIWK”, the “soluble on expression in E. coli” value is given as “soluble”.

As to “EQPKCNVRVVEMTYTTVGVVGEATRASGVVLVPDGPQCPGPYPVLGWGRDGQTFRRSEQAKSIISAKGDDPLVTRLASQGYVVVGTDYLGLGGSNYPYHPYLHANSEASALIDALRASRTVLQHLNTPLSNKLMLSGFSQGGHTAMATQREIEAHLSNE”, the “soluble on expression in E. coli” value is given as “not soluble”.

For the sequence “EQSAYRIHSAYMVGGGGSITRDTYLSPLRYGGWTLNLLGEKTFPLKASDSRWMIRTGHELDFALMDNPANNAHFYSLLYNGSAAALYRLGAKHLRAAWMDNLRLAFGPGLEIGLGGIYSTRNGNNPATLKLYTNAIAQASIGYYVPSETFPLYFRLLSQINLFGIAYGNGFGESYYENFLLNNGIAGSLHFTYPGKFTRFTTLITADIPIRNFCTLRVGYRYSHLGSSLNALDTRIHSHTAFIGFVTEFYRFRGRKAMNTGRRTSLYYHD”, the “soluble on expression in E. coli” value is given as “not soluble”.

For the sequence “ERSAVQLSLSSRLQLTLYQYKTCPFCSKVRAFLDFHALPYQVVEVNPVLRAEIKFSSYRKVPILVAQEGESSQQLNDSSVIISALKTYLVSGQPLEEIITYYPAMKAVNDQGKEVTEFGNKYWLMLNEKEAQQVYSGKEARTEEMKWRQWADDWLVHLISPNVYRTPTEALASFDYIVREGKFGAVEGAVAKYMGAAAMYLISKRLKSRHRLQDNVREDLYEAADKWVAAVGKDRPFMGGQKPNLADLAVYGVLRVMEGLDAFDDLMQHTHIQPWYLRVERAITEASPAH”, the “soluble on expression in E. coli” value is recorded as “soluble”.

With “EVPDLPEEPSETAEEVVTVALRCPNGRVLRRRFFKSWNSQVLLDWMMKVGYHKSLYRLSTSFPRRALEVEGGSSLEDIGITVDTVLNVEEKEQSSQ”, the “soluble on expression in E. coli” value is recorded as “soluble”.

In the case of “EVPDYLCCNITLEIFRDPVISPSGVTYERAAILEHLKKVGKFDPITREKIDPANLVPNLAIKEAVAAYLEKHVWAYKMGC”, the “soluble on expression in E. coli” value is listed as “soluble”.

As to “EVQLLESGGGLVQPGGSLRLSCAASGFTFEEYAMLWVRQAPGKGLEWVSGINARGYTTYYADSVKGRFTISRDNSKNTLYLQMNSLRTEDTAVYYCAKPWYPFMASKGSEFDYWGQGTLVTVSSAAALEIKRASQPELAPEDPEDVEHHHHHH”, the “soluble on expression in E. coli” value is listed as “soluble”.
